The results in this text go back to patent US20040138133A1 (Scripps Research, published 2004).

The target in this assay is T1, Nck (adapter protein) from detergent extracts of human endothelial cells (human, UniProt P16333 2-377, limits assumed).
T1 construct: Endogenous protein pulled down from a cell lysate
As to the kind of experiment: peptide-agarose pull-down from human endothelial cell lysate, anti-Nck western blot. On the procedure:
Affinity Chromatography. PRO or control peptides containing an N-terminal cysteine were dissolved in about 1 ml of coupling buffer (50 mM tris pH 8.0, 5 mM EDTA) and about 0.5 ml at about 3 mg/ml peptide added to about 2 ml of activated thiol-Sepharose (Pharmacia). Samples were incubated at a temperature of about 4° C. overnight with 1% β-mercaptoethanol added to block unreacted sites. Beads were rinsed and stored at a temperature of about 4° C. Endothelial cell cultures in 15 cm dishes were extracted in about 1.0 ml of cold (about 4° C.), lysis buffer (20 mM pH 7.4 sodium phosphate, 100 mM NaCl, 1% Triton X-100, 10 mM NaF, 2 mM EDTA, 1 mM sodium orthovanadate, 1 mM PMSF, 10 μg/ml each of leupeptin and aprotinin). The extracts were centrifuged for about 10 minutes at top speed in a microfuge and the supernatants were then removed. A 0.5 ml sample of each extract was incubated with about 10 μl of packed beads for about 1 hour, with rotation at a temperature of about 4° C. The beads were rinsed with lysis buffer (about 4×0.5 ml) and dissolved in SDS sample buffer (about 0.04 ml). Samples were analyzed by SDS PAGE on 10% gels and immunoblotting with anti-NCK (Santa Cruz) and HRP-protein A as secondary, and then were developed and detected using enhanced chemiluminescence (ECL kit, Amersham). […]
(A western blot detects proteins with antibodies after separation by electrophoresis.)

No end group written: not given here.

With KAGAPPMRNTSTMC (also: C-terminal Cys coupled to thiol-Sepharose (agarose) beads, also called mutant peptide), the binding result is “no binding”.
